# In patent publication US20150037328A1 (Pfizer, published 2015):
# B1: humanized anti-CXCR4 antibody h3G10.1.91.A58B (antibody, V domains shown)
# VH: EVQLVESGGGLVQPGGSLRLSCAASGFTFSDYYMSWVRQAPGKGLEWVGFIRHKANFETTEYSTSVKGRFTISRDDSKNSLYLQMNSLKTEDTAVYYCARDLPGFAYWGQGTLVTVSS
# VL: DIVMTQSPDSLAVSLGERATINCKSSQSLFNSHTRKNYLAWYQQKPGQPPKLLIYWASARGSGVPDRFSGSGSGTDFTLTISSLQAEDVAVYYCKQSFNLRTFGGGTKVEIK
# notes: Whole antibody (detected with an anti-human IgG Fc gamma specific second antibody); also called h3G10.1.91 VH / h3G10.A58B VL; CXCR4 Ab h3G10.1.91.A58B
# Key:
# [1] = target: T1, human CXCR4 (chemokine (C-X-C motif) receptor 4) (human, UniProt P61073 1-352); test: flow cytometry on HPB-ALL cells, dilution series 0.007-267 nM
# T1 construct: Endogenous on human tumour cell lines (Ramos, HPB-ALL, Raji, Jurkat, MM1.S, RPMI-8226, MOLP-8, MOLT-4) or transfected into CHO-K1 cells (DiscoveRx); also called CXCR4 receptor
# Experimental: (§1) Binding was detected by 2nd Ab (Alexa Fluor 647-conjugated goat anti-human IgG, Fcgamma specific, Jackson ImmunoResearch Laboratories, West Grove Pa.) and acquired with LSRFortessa cell analyzer (BD Biosciences, San Jose Calif.). Curve fit and EC50 calculation was performed with Prism software (GraphPad Software, La Jolla Calif.). Tables 9A and 9B and FIGS. 3A and 3B.
# cynomolgus CXCR4 [2] = target: T2, cynomolgus CXCR4 (cynomolgus, UniProt Q28474 1-352); test: flow cytometry on Cyno-CXCR4 transfected CHO cells, dilution series 0.007-267 nM
# T2 construct: whole, on cells; On Cyno-CXCR4 transfected CHO cells and on HSC-F (cynomolgus T cell line); also called Cyno-CXCR4; CynoCXCR4
# Experimental: as §1
# [3] = target: T1, human CXCR4 (chemokine (C-X-C motif) …); test: cell-based or functional assay
# [4] = target: T1, human CXCR4 (chemokine (C-X-C motif) …); test: cell-based or functional assay; remark: listed apart in the source
# [5] = target: T1, human CXCR4 (chemokine (C-X-C motif) …); test: flow cytometry on Raji cells, dilution series 0.007-267 nM
# Experimental: as §1
# cynomolgus CXCR4 [6] = target: T2, cynomolgus CXCR4; test: flow cytometry on HSC-F (cynomolgus T cell line) cells, dilution series 0.007-267 nM
# Experimental: as §1
# T1 sequence (P61073 whole entry): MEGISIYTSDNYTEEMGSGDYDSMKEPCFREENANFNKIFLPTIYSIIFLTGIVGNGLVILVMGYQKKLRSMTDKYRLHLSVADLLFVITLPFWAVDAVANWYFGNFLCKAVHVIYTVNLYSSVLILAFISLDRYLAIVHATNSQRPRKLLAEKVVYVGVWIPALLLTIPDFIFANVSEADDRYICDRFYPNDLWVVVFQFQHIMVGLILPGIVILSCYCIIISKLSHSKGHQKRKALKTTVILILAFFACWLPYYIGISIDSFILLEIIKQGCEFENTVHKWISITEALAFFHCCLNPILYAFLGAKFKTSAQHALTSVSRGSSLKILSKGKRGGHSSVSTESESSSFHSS
# T2 sequence (Q28474 whole entry): as the sequence (P61073 whole entry) above, with M24I, N35H, K38R, R146K, N176S counted along it
binder,measurement,setting,value
B1,EC50,[1],0.27 nM
same,EC50,cynomolgus CXCR4 [2],0.16 nM
same,"EC50 (M), cAMP assay, CHO-K1 cells transfected with human CXCR4",[3],3.92e-08 M
same,"IC50 (M), Calcium Flux Activity (average of 3 experiments)",[4],2.17e-09 M
same,EC50,[5],3.05 nM
same,EC50,cynomolgus CXCR4 [6],2.58 nM
